Key:
[1] = biological target: 细胞表面的GPC3蛋白 (UniProt P51654); assay: cell-based or functional assay
[2] = biological target: GPC3-his蛋白 (UniProt P51654 25-559); assay: SPR (Biacore), GPC3-his amine-coupled on CM5, antibody as analyte, 1:1 Langmuir fit

Molecule | 杀伤活性 IC50, Hep3BLG cells, 72 h, luciferase viability [1] | Kd [2]
HN3-PE24 | 0.109 µg/mL | 
HN3 (antibody, V domains shown) VH: QVQLVQSGGGLVQPGGSLRLSCAASYFDFDSYEMSWVRQAPGKGLEWIGSIYHSGSTYYNPSLKSRVTISRDNSKNTLYLQMNTLRAEDTATYYCARVNMDRFDYWGQGTLVTVSS |  | 1.95 nM
